Measurements reported in publication PMC11470125.

Molecular target: T1, LbuCas13a (Leptotrichia buwadei? (printed only as …, UniProt C7NBY4 1-1159))
T1 sequence: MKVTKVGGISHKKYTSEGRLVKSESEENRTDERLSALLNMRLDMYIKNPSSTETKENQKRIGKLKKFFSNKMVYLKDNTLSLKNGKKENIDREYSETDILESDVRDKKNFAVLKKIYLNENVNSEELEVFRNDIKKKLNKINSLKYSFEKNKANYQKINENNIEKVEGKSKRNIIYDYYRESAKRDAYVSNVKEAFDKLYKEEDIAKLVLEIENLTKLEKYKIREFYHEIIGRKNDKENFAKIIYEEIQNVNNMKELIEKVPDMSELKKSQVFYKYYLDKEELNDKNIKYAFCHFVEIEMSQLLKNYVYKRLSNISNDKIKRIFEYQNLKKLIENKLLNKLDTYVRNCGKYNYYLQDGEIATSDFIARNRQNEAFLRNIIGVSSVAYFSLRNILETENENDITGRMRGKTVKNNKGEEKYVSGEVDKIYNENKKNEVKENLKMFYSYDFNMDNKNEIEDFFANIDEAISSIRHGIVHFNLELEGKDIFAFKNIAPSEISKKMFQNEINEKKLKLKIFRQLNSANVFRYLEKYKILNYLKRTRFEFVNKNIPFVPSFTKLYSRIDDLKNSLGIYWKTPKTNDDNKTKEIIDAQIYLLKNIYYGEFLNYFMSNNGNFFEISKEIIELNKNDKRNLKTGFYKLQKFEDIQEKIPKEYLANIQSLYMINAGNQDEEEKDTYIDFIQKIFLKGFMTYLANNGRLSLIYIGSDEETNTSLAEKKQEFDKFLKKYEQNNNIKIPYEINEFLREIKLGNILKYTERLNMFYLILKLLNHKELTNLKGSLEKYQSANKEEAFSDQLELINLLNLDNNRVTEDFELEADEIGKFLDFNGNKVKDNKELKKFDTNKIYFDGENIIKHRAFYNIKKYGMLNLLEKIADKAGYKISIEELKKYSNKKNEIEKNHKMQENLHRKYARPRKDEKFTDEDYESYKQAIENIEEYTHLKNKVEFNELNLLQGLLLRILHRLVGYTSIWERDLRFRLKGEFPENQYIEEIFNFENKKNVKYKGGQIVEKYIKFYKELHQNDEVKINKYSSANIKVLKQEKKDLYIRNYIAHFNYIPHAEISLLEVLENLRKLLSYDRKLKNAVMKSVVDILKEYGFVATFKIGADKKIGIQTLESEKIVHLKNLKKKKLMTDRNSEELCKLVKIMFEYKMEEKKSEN
Assay: competition

B1: Cas13a crRNA with scrambled ssDNA, unlabelled competitor (mixed)
RNA: GAUUUAGACCACCCCAAAAAUGAAGGGGACUAAAACUGGGUGUUUGACAAGUUGUAUUGCAAUC
DNA: TCCACATCATCACTATTAACAAGGAACACTCCGAGGGT
B1: no binding.
